Measured values from patent US20200199241A1 (Chugai, published 2020).

Assays:
Experiment in all cases: SPR (Biacore), bound amount, IL6R-BF648/IL6R-L = 100
[1] = target: T1, FcγRIa (human, UniProt P12314 16-292, limits assumed)
T1 construct: also called FcgRIa; CD64
Procedure: (§1) According to the following method, relative binding activities were calculated for the results of analyzing interactions with the respective FcγRs.

[2] = target: T2, FcγRIIa type H (human, UniProt P12318 36-217)
T2 construct: also called FcγRIIaH; FcγRIIH
T2 sequence: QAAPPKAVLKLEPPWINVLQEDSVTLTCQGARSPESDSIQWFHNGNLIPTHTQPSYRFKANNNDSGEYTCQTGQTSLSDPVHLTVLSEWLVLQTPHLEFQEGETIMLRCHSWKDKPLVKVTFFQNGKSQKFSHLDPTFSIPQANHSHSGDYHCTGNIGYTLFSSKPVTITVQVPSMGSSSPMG
Procedure: as §1

[3] = target: T3, FcγRIIb (human, UniProt P31994 43-217, limits assumed)
T3 construct: also called FcgRIIb; FcγIIB
T3 sequence: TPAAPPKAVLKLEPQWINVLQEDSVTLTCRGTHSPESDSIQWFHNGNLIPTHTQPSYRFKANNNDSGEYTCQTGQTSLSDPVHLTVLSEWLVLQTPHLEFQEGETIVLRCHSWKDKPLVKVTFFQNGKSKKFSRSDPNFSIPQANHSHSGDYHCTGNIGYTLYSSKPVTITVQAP
Procedure: as §1

[4] = target: T4, FcγRIIIa type V (human, UniProt P08637 17-208, limits assumed)
T4 construct: also called FcγRIIIaV; FcgRIIIaV
T4 sequence (P08637 other isoform, or with tags, fused parts or gaps limits assumed): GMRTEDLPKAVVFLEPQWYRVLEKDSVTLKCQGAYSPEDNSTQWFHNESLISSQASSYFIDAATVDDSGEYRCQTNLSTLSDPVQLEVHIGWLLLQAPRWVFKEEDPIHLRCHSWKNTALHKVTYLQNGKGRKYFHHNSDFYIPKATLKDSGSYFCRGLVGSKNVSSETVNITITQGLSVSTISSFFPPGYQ
Procedure: as §1

T1 sequence (P12314 16-292 limits assumed): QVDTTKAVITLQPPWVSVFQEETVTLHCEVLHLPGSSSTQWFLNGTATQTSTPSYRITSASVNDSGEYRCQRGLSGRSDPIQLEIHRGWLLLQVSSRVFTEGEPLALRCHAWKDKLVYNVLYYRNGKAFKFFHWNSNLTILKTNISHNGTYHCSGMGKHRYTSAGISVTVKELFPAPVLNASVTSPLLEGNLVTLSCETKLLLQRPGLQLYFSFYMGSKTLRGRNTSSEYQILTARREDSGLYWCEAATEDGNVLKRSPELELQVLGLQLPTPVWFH

Binder | relative binding activity [1] | relative binding activity [2] | relative binding activity [3] | relative binding activity [4]
IL6R-2B253/IL6R-L (antibody, human IgG1, IgG1; Fc variant of IL6R-B3; copies: 2 + 2) heavy: QVQLQESGPGLVKPSETLSLTCAVSGHSISHDHAWSWVRQPPGEGLEWIGFISYSGITNYNPSLQGRVTISRDNSKNTLYLQMNSLRAEDTAVYYCARSLARTTAMDYWGEGTLVTVSSASTKGPSVFPLAPSSKSTSGGTAALGCLVKDYFPEPVTVSWNSGALTSGVHTFPAVLQSSGLYSLSSVVTVPSSSLGTQTYICNVNHKPSNTKVDKKVEPKSCDKTHTCPPCPAPDLLGGDSVFLFPPKPKDTLMISRTPEVTCVVVDVSHEDPEVKFNWYVDGVEVHNAKTKPREEQYNSTYRVVSVLTVLHQDWLNGKEYKCKMSNKALPAPIEKTISKAKGQPREPQVYTLPPSRDELTKNQVSLTCLVKGFYPSDIAVEWESNGQPENNYKTTPPVLDSDGSFFLYSKLTVDKSRWQQGNVFSCSVMHEALHNHYTQESLSLSP light: DIQMTQSPSSLSASVGDRVTITCRASQDISSYLNWYQQKPGKAPKLLIYYTSRLHSGVPSRFSGSGSGTDFTFTISSLQPEDIATYYCQQGNTLPYTFGQGTKVEIK | 155 % of control | 207 % of control | 156 % of control | 126 % of control
IL6R-BP082/IL6R-L (antibody, human IgG1, IgG1; Fc variant of IL6R-B3; copies: 2 + 2) heavy: QVQLQESGPGLVKPSETLSLTCAVSGHSISHDHAWSWVRQPPGEGLEWIGFISYSGITNYNPSLQGRVTISRDNSKNTLYLQMNSLRAEDTAVYYCARSLARTTAMDYWGEGTLVTVSSASTKGPSVFPLAPSSKSTSGGTAALGCLVKDYFPEPVTVSWNSGALTSGVHTFPAVLQSSGLYSLSSVVTVPSSSLGTQTYICNVNHKPSNTKVDKKVEPKSCDKTHTCPPCPAPDLLGGDSVFLFPPKPKDTLMISRTPEVTCVVVDVSHEDPEVKFNWYVDGVEVHNAKTKPREEQYNSTYRVVSVLTVLHQDWLNGKEYKCKVSNKALPKPIEKTISKAKGQPREPQVYTLPPSRDELTKNQVSLTCLVKGFYPSDIAVEWESNGQPENNYKTTPPVLDSDGSFFLYSKLTVDKSRWQQGNVFSCSVMHEALHNHYTQESLSLSP light: DIQMTQSPSSLSASVGDRVTITCRASQDISSYLNWYQQKPGKAPKLLIYYTSRLHSGVPSRFSGSGSGTDFTFTISSLQPEDIATYYCQQGNTLPYTFGQGTKVEIK | 74 % of control | 106 % of control | 136 % of control | 67 % of control
IL6R-BP083/IL6R-L (antibody, human IgG1, IgG1; Fc variant of IL6R-B3; copies: 2 + 2) heavy: QVQLQESGPGLVKPSETLSLTCAVSGHSISHDHAWSWVRQPPGEGLEWIGFISYSGITNYNPSLQGRVTISRDNSKNTLYLQMNSLRAEDTAVYYCARSLARTTAMDYWGEGTLVTVSSASTKGPSVFPLAPSSKSTSGGTAALGCLVKDYFPEPVTVSWNSGALTSGVHTFPAVLQSSGLYSLSSVVTVPSSSLGTQTYICNVNHKPSNTKVDKKVEPKSCDKTHTCPPCPAPELLGGDSVFLFPPKPKDTLMISRTPEVTCVVVDVSHEDPEVKFNWYVDGVEVHNAKTKPREEQDNSTYRVVSVLTVLHQDWLNGKEYKCKVSNKALPKPIEKTISKAKGQPREPQVYTLPPSRDELTKNQVSLTCLVKGFYPSDIAVEWESNGQPENNYKTTPPVLDSDGSFFLYSKLTVDKSRWQQGNVFSCSVMHEALHNHYTQESLSLSP light: DIQMTQSPSSLSASVGDRVTITCRASQDISSYLNWYQQKPGKAPKLLIYYTSRLHSGVPSRFSGSGSGTDFTFTISSLQPEDIATYYCQQGNTLPYTFGQGTKVEIK | 50 % of control | 91 % of control | 122 % of control | 107 % of control
IL6R-2B261/IL6R-L (antibody, human IgG1, IgG1; Fc variant of IL6R-B3; copies: 2 + 2) heavy: QVQLQESGPGLVKPSETLSLTCAVSGHSISHDHAWSWVRQPPGEGLEWIGFISYSGITNYNPSLQGRVTISRDNSKNTLYLQMNSLRAEDTAVYYCARSLARTTAMDYWGEGTLVTVSSASTKGPSVFPLAPSSKSTSGGTAALGCLVKDYFPEPVTVSWNSGALTSGVHTFPAVLQSSGLYSLSSVVTVPSSSLGTQTYICNVNHKPSNTKVDKKVEPKSCDKTHTCPPCPAPDLLGGDSVFLFPPKPKDTLMISRTPEVTCVVVDVSHEDPEVKFNWYVDGVEVHNAKTKPREEQDNSTYRVVSVLTVLHQDWLNGKEYKCKVSNKALPAPIEKTISKAKGQPREPQVYTLPPSRDELTKNQVSLTCLVKGFYPSDIAVEWESNGQPENNYKTTPPVLDSDGSFFLYSKLTVDKSRWQQGNVFSCSVMHEALHNHYTQESLSLSP light: DIQMTQSPSSLSASVGDRVTITCRASQDISSYLNWYQQKPGKAPKLLIYYTSRLHSGVPSRFSGSGSGTDFTFTISSLQPEDIATYYCQQGNTLPYTFGQGTKVEIK | 100 % of control | 91 % of control | 115 % of control | 87 % of control

Next, values leading:

relative binding activity [1] | relative binding activity [2] | relative binding activity [3] | relative binding activity [4] | Binder
128 % of control |  | 165 % of control | 87 % of control | IL6R-BP211/IL6R-L (antibody, human IgG1, IgG1; Fc variant of IL6R-B3; copies: 2 + 2) heavy: QVQLQESGPGLVKPSETLSLTCAVSGHSISHDHAWSWVRQPPGEGLEWIGFISYSGITNYNPSLQGRVTISRDNSKNTLYLQMNSLRAEDTAVYYCARSLARTTAMDYWGEGTLVTVSSASTKGPSVFPLAPSSKSTSGGTAALGCLVKDYFPEPVTVSWNSGALTSGVHTFPAVLQSSGLYSLSSVVTVPSSSLGTQTYICNVNHKPSNTKVDKKVEPKSCDKTHTCPPCPAPDLLGGDSVFLFPPKPKDTLMISRTPEVTCVVVDVSDEDGEVKFNWYVDGVEVHNAKTKPREEQYNSTYRVVSVLTVLHQDWLNGKEYKCKVSNAALPRPIEKTISKAKGQPREPQVYTLPPSRDELTKNQVSLTCLVKGFYPSDIAVEWESNGQPENNYKTTPPVLDSDGSFFLYSKLTVDKSRWQQGNVFSCSVMHEALHNHYTQESLSLSP light: DIQMTQSPSSLSASVGDRVTITCRASQDISSYLNWYQQKPGKAPKLLIYYTSRLHSGVPSRFSGSGSGTDFTFTISSLQPEDIATYYCQQGNTLPYTFGQGTKVEIK
19 % of control | 158 % of control | 152 % of control | 104 % of control | IL6R-BP085/IL6R-L (antibody, human IgG1, IgG1; Fc variant of IL6R-B3; copies: 2 + 2) heavy: QVQLQESGPGLVKPSETLSLTCAVSGHSISHDHAWSWVRQPPGEGLEWIGFISYSGITNYNPSLQGRVTISRDNSKNTLYLQMNSLRAEDTAVYYCARSLARTTAMDYWGEGTLVTVSSASTKGPSVFPLAPSSKSTSGGTAALGCLVKDYFPEPVTVSWNSGALTSGVHTFPAVLQSSGLYSLSSVVTVPSSSLGTQTYICNVNHKPSNTKVDKKVEPKSCDKTHTCPPCPAPELLGDDSVFLFPPKPKDTLMISRTPEVTCVVVDVSHEDPEVKFNWYVDGVEVHNAKTKPREEQYNSTYRVVSVLTVLHQDWLNGKEYKCKVSNKALPKPIEKTISKAKGQPREPQVYTLPPSRDELTKNQVSLTCLVKGFYPSDIAVEWESNGQPENNYKTTPPVLDSDGSFFLYSKLTVDKSRWQQGNVFSCSVMHEALHNHYTQESLSLSP light: DIQMTQSPSSLSASVGDRVTITCRASQDISSYLNWYQQKPGKAPKLLIYYTSRLHSGVPSRFSGSGSGTDFTFTISSLQPEDIATYYCQQGNTLPYTFGQGTKVEIK
109 % of control | 162 % of control | 141 % of control | 106 % of control | IL6R-BP084/IL6R-L (antibody, human IgG1, IgG1; Fc variant of IL6R-B3; copies: 2 + 2) heavy: QVQLQESGPGLVKPSETLSLTCAVSGHSISHDHAWSWVRQPPGEGLEWIGFISYSGITNYNPSLQGRVTISRDNSKNTLYLQMNSLRAEDTAVYYCARSLARTTAMDYWGEGTLVTVSSASTKGPSVFPLAPSSKSTSGGTAALGCLVKDYFPEPVTVSWNSGALTSGVHTFPAVLQSSGLYSLSSVVTVPSSSLGTQTYICNVNHKPSNTKVDKKVEPKSCDKTHTCPPCPAPELLGGDSVFLFPPKPKDTLMISRTPEVTCVVVDVSHEDPEVKFNWYVDGVEVHNAKTKPREEQYNSTYRVVSVLTVLHQDWLNGKEYKCKMSNKALPKPIEKTISKAKGQPREPQVYTLPPSRDELTKNQVSLTCLVKGFYPSDIAVEWESNGQPENNYKTTPPVLDSDGSFFLYSKLTVDKSRWQQGNVFSCSVMHEALHNHYTQESLSLSP light: DIQMTQSPSSLSASVGDRVTITCRASQDISSYLNWYQQKPGKAPKLLIYYTSRLHSGVPSRFSGSGSGTDFTFTISSLQPEDIATYYCQQGNTLPYTFGQGTKVEIK
72 % of control | 116 % of control | 137 % of control | 123 % of control | IL6R-BP086/IL6R-L (antibody, human IgG1, IgG1; Fc variant of IL6R-B3; copies: 2 + 2) heavy: QVQLQESGPGLVKPSETLSLTCAVSGHSISHDHAWSWVRQPPGEGLEWIGFISYSGITNYNPSLQGRVTISRDNSKNTLYLQMNSLRAEDTAVYYCARSLARTTAMDYWGEGTLVTVSSASTKGPSVFPLAPSSKSTSGGTAALGCLVKDYFPEPVTVSWNSGALTSGVHTFPAVLQSSGLYSLSSVVTVPSSSLGTQTYICNVNHKPSNTKVDKKVEPKSCDKTHTCPPCPAPELLGGDSVFLFPPKPKDTLMISRTPEVTCVVVDVSHEDPEVKFNWYVDGVEVHNAKTKPREEQYNSTYRVVSVLTVLHQDWLNGKEYKCKVSNAALPKPIEKTISKAKGQPREPQVYTLPPSRDELTKNQVSLTCLVKGFYPSDIAVEWESNGQPENNYKTTPPVLDSDGSFFLYSKLTVDKSRWQQGNVFSCSVMHEALHNHYTQESLSLSP light: DIQMTQSPSSLSASVGDRVTITCRASQDISSYLNWYQQKPGKAPKLLIYYTSRLHSGVPSRFSGSGSGTDFTFTISSLQPEDIATYYCQQGNTLPYTFGQGTKVEIK
